Laboratory results: patent publication US20260022166A1 (JIANGSU HENGRUI MEDICINE, published 2026)

B1: hu199-36 (antibody, human IgG1, kappa, V domains shown)
VH: EVQLVQSGAEVKKPGASVKVSCKASGYTFTTYWMHWVKQAPGQGLEWMGMIDPSDSETTLIQKFKDKVTLTVDKSTSTAYMELSSLRSEDTAVYYCARTLDGYYDYWGQGTTVTVSS
VL: DIQMTQSPSSLSASVGDRVTITCRASENIYSYLAWYQQKPGKSPQLLVYFAKTLAEGVPSRFSGSVSGTQFTLTISSLQPEDFATYYCQHHYGTPWTFGGGTKVEIKR
B2: hu119-03 (antibody, human IgG1, kappa)
heavy: EVQLVQSGAEVKKPGSSVKVSCKASGFTFSTYNMHWVKHAPGQGLEWIGAIYPGNGETSYNQKFKDRATLTVDKSTSTAYMELSSLRSEDTAVYYCAREDDYGEGYFDVWGQGTTVTVSSASTKGPSVFPLAPSSKSTSGGTAALGCLVKDYFPEPVTVSWNSGALTSGVHTFPAVLQSSGLYSLSSVVTVPSSSLGTQTYICNVNHKPSNTKVDKKVEPKSCDKTHTCPPCPAPELLGGPSVFLFPPKPKDTLYITREPEVTCVVVDVSHEDPEVKFNWYVDGVEVHNAKTKPREEQYNSTYRVVSVLTVLHQDWLNGKEYKCKVSNKALPAPIEKTISKAKGQPREPQVYTLPPSRDELTKNQVSLTCLVKGFYPSDIAVEWESNGQPENNYKTTPPVLDSDGSFFLYSKLTVDKSRWQQGNVFSCSVMHEALHNHYTQKSLSLSPGK
light: DIVMTQSPDSLAVSLGERATINCRASESVDNSGLSFMHWYQQKPGQPPKLLIYRASNLGSGVPDRFSGSGSGTDFTLTISSLQAEDVAVYYCQQINTDPLTFGQGTKLEIKRTVAAPSVFIFPPSDEQLKSGTASVVCLLNNFYPREAKVQWKVDNALQSGNSQESVTEQDSKDSTYSLSSTLTLSKADYEKHKVYACEVTHQGLSSPVTKSFNRGEC
notes: humanized, IgG1-YTE/kappa
B3: hu119-07 (antibody, human IgG1, kappa)
heavy: EVQLVQSGAEVKKPGSSVKVSCKASGFTFSTYNMHWVKHAPGQGLEWIGAIYPGNGETSYNQKFKDRATLTVDKSTSTAYMELSSLRSEDTAVYYCAREDDYGEGYFDVWGQGTTVTVSSASTKGPSVFPLAPSSKSTSGGTAALGCLVKDYFPEPVTVSWNSGALTSGVHTFPAVLQSSGLYSLSSVVTVPSSSLGTQTYICNVNHKPSNTKVDKKVEPKSCDKTHTCPPCPAPELLGGPSVFLFPPKPKDTLYITREPEVTCVVVDVSHEDPEVKFNWYVDGVEVHNAKTKPREEQYNSTYRVVSVLTVLHQDWLNGKEYKCKVSNKALPAPIEKTISKAKGQPREPQVYTLPPSRDELTKNQVSLTCLVKGFYPSDIAVEWESNGQPENNYKTTPPVLDSDGSFFLYSKLTVDKSRWQQGNVFSCSVMHEALHNHYTQKSLSLSPGK
light: DIVLTQSPDSLAVSLGERATINCRASESVDNSGLSFMHWYQQKPGQPPKLLIYRASNLGSGVPDRFSGSGSGTDFTLTISSLQAEDVAVYYCQQINTDPLTFGQGTKLEIKRTVAAPSVFIFPPSDEQLKSGTASVVCLLNNFYPREAKVQWKVDNALQSGNSQESVTEQDSKDSTYSLSSTLTLSKADYEKHKVYACEVTHQGLSSPVTKSFNRGEC
notes: humanized, IgG1-YTE/kappa
B4: hu119-11 (antibody, human IgG1, kappa, V domains shown)
VH: EVQLVQSGAEVKKPGSSVKVSCKASGFTFSTYNMHWVKHAPGQGLEWIGAIYPGNGETSYNQKFKDRATLTVDKSTSTAYMELSSLRSEDTAVYYCAREDDYGEGYFDVWGQGTTVTVSS
VL: DIVMTQSPDSLAVSLGERATINCRASESVDNSGLSFMHWYQQKPGQPPKLLLYRASNLGSGIPDRFSGSGSGTDFTLTISSLQAEDVAVYYCQQINTDPLTFGQGTKLEIKR
notes: humanized, IgG1-YTE/kappa
B5: hu119-13 (antibody, human IgG1, kappa, V domains shown)
VH: EVQLVQSGAEVKKPGSSVKVSCKASGFTFSTYNMHWVKHAPGQGLEWIGAIYPGNGETSYNQKFKDRATLTVDKSTSTAYMELSSLRSEDTAVYYCAREDDYGEGYFDVWGQGTTVTVSS
VL: EIVLTQSPATLSLSPGERATLSCRASESVDNSGLSFMHWYQQKPGQAPRLLIYRASNLGSGIPARFSGSGSGTDFTLTISSLEPEDFAVYYCQQINTDPLTFGQGTKLEIKR
notes: humanized, IgG1-YTE/kappa
B6: hu119-30 (antibody, human IgG1, kappa, V domains shown)
VH: EAQLVQSGAEVKKPGSSVKVSCKASGFTFSTYNMHWVRQAPGQGLEWIGAIYPGNGETSYNQKFKDRATLTVDKSTRTAYMELSSLRSEDTAVYYCAREDDYGEGYFDVWGQGTTVTVSS
VL: DIVLTQSPATLSLSPGERATLSCRASESVDSSGLSFMHWYQQKPGQPPRLLLYRASNLGSGIPARFSGSGSGTDFTLTISSLEPEDFAVYYCQQINTDPLTFGQGTKLEIKR
B7: hu119-18 (antibody, human IgG1, kappa)
heavy: EVQLVQSGAEVKKPGSSVKVSCKASGFTFSTYNMHWVKHAPGQGLEWIGAIYPGNGETSYNQKFKDRATLTVDKSTSTAYMELSSLRSEDTAVYYCAREDDYGEGYFDVWGQGTTVTVSSASTKGPSVFPLAPSSKSTSGGTAALGCLVKDYFPEPVTVSWNSGALTSGVHTFPAVLQSSGLYSLSSVVTVPSSSLGTQTYICNVNHKPSNTKVDKKVEPKSCDKTHTCPPCPAPELLGGPSVFLFPPKPKDTLYITREPEVTCVVVDVSHEDPEVKFNWYVDGVEVHNAKTKPREEQYNSTYRVVSVLTVLHQDWLNGKEYKCKVSNKALPAPIEKTISKAKGQPREPQVYTLPPSRDELTKNQVSLTCLVKGFYPSDIAVEWESNGQPENNYKTTPPVLDSDGSFFLYSKLTVDKSRWQQGNVFSCSVMHEALHNHYTQKSLSLSPGK
light: EIVLTQSPATLSLSPGERATLSCRASESVDNSGLSFMHWYQQKPGQPPRLLLYRASNLGSGIPARFSGSGSGTDFTLTISSLEPEDFAVYYCQQINTDPLTFGQGTKLEIKRTVAAPSVFIFPPSDEQLKSGTASVVCLLNNFYPREAKVQWKVDNALQSGNSQESVTEQDSKDSTYSLSSTLTLSKADYEKHKVYACEVTHQGLSSPVTKSFNRGEC
notes: humanized, IgG1-YTE/kappa
B8: hu3-13 (antibody, human IgG1, kappa, V domains shown)
VH: EVQLVQSGAEVKKPGASVKVSCKASGYTFTDDYMNWVRQAPGQRLEWMGIISPYNGGTSYNQKFKGRVTLTVDKSASTAYMELSSLRSEDTAVYYCAREDYDYDGYAMDYWGQGTTVTVSS
VL: EIVLTQSPATLSLSPGERATLSCRASSSVSYMHWYQQKPGQAPRPWIYATSNLASGVPARFSGSGSGTSYTLTISRLEPEDFAVYYCQQSDSGREFGGGTKVEIKR
B9: hu179-08 (antibody, human IgG1, kappa)
heavy: EVQLVQSGAEVKKPGSSVKVSCKASGYTFSNYLIEWVRQAPGQGLEWIGVIDPGNGDTNYNENFKGRATLTADKSTSTAYIELSSLRSEDTAVYYCAREDNTGTAFDYWGQGTTVTVSSASTKGPSVFPLAPSSKSTSGGTAALGCLVKDYFPEPVTVSWNSGALTSGVHTFPAVLQSSGLYSLSSVVTVPSSSLGTQTYICNVNHKPSNTKVDKKVEPKSCDKTHTCPPCPAPELLGGPSVFLFPPKPKDTLYITREPEVTCVVVDVSHEDPEVKFNWYVDGVEVHNAKTKPREEQYNSTYRVVSVLTVLHQDWLNGKEYKCKVSNKALPAPIEKTISKAKGQPREPQVYTLPPSRDELTKNQVSLTCLVKGFYPSDIAVEWESNGQPENNYKTTPPVLDSDGSFFLYSKLTVDKSRWQQGNVFSCSVMHEALHNHYTQKSLSLSPGK
light: DIVMTQTPLSLSVTPGQPASISCKASQSVSSDVTWYLQKPGQSPQLLIYYVSNHYTGVPDRFSGSGSGTDFTLKISRVEAEDVGVYYCQQHHRFPLTFGQGTKLEIKRTVAAPSVFIFPPSDEQLKSGTASVVCLLNNFYPREAKVQWKVDNALQSGNSQESVTEQDSKDSTYSLSSTLTLSKADYEKHKVYACEVTHQGLSSPVTKSFNRGEC
notes: humanized, IgG1-YTE/kappa
B10: hu179-33 (antibody, human IgG1, kappa, V domains shown)
VH: EVQLVQSGAEVKKPGSSVKVSCKASGYTFSNYLIEWVRQAPGQGLEWIGVIDPGVGDTNYNENFKGRATLTADKSTSTAYIELSSLRSEDTAVYYCAREDNTGTAFDYWGQGTTVTVSS
VL: SIVMTQTPLSLSVTPGQPASISCKASQSVSSDVTWYLQKPGQSPQLLIYYVSEHYTGVPDRFSGSGYGTDFTLKISRVEAEDVGVYYCQQHHRFPLTFGQGTKLEIKR
B11: AMG157 (antibody, human IgG2, lambda, V domains shown)
VH: QMQLVESGGGVVQPGRSLRLSCAASGFTFRTYGMHWVRQAPGKGLEWVAVIWYDGSNKHYADSVKGRFTITRDNSKNTLNLQMNSLRAEDTAVYYCARAPQWELVHEAFDIWGQGTMVTVSS
VL: SYVLTQPPSVSVAPGQTARITCGGNNLGSKSVHWYQQKPGQAPVLVVYDDSDRPSWIPERFSGSNSGNTATLTISRGEAGDEADYYCQVWDSSSDHVVFGGGTKLTVLG

What was measured:
[1] = biological target: Fc-tagged human TSLP antigen (huTSLP-Fc) (human); experiment: cell-based or functional assay
[2] = biological target: T1, His-tagged human TSLP antigen (huTSLP-his) (human); experiment: ELISA, coated huTSLP-his
T1 construct: also called Human TSLP-his
Experimental: After discarding the liquid, 200 μl/well of blocking solution with 5% skimmed milk (Bright Dairy skimmed milk powder) diluted in PBS was added and incubated in a 37° C. incubator for 2 hours for blocking. After blocking was over, the blocking solution was discarded, and the plates were washed with PBST buffer (PBS containing 0.1% tween-20, pH 7.4) for 3 times. […] After incubation was over, the plates were washed with PBST for 3 times. […] After washing the plate with PBST for 6 times, 50 μl/well TMB chromogenic substrate (KPL, 52-00-03) was added and incubated at room temperature for 10-15 min, and 50 μl/well 1 M H₂SO₄ was added to stop the reaction. The absorption value was read by using a NOVOStar microplate reader at 450 nm.

native TSLP = native TSLP (human, UniProt Q969D9 29-159); experiment: cell-based or functional assay

Binder	IC50 of inhibiting TSLP-induced proliferation of BaF3 cells overexpressing TSLPR/IL7R [1]	EC50 [2]	IC50 of inhibiting the proliferation of BaF3-TLSPR/IL7R cells induced by native TSLP (native TSLP)
B1	476 pM		
B2		159 pM	
B3		213 pM	
B4		174 pM	
B5		344 pM	
B6	430 pM		1530 pM
B7		346 pM	
B8	444 pM		289 pM
B9		1020 pM	
B10	409 pM		22.8 pM
B11	573 pM		
